Measurements reported in the supplement of paper PMC7877785.
± gives the uncertainty stated by the source.

Test: self-splicing fitness, log relative to wild type (ln ratio); higher = more splicing; Tetrahymena group I intron in knt gene, E. coli kanamycin selection, DiMSum; sequences stand for … in CUCUCU…GGAGGGAAAAGUUAUCAGGCAUGCACCUGGUAGCUAGUCUUUAAACCAAUAGAUUGCAUCGGUUUAAAAGGCAAGACCGUCAAAUUGCGGGAAAGGGGUCAACAGCCGUUCAGUACCAAGUCUCAGGGGAAACUUUGAGAUGGCCUUGCAAAGGGUAUGGUAAUAAGCUGACGGACAUGGUCCUAACCACGCAGCCAAGUCCUAAGUCAACAGAUCUUCUGUUGAUAUGGAUGCAGUUCACAGACUAAAUGUCGGUCGGGGAAGAUGUAUUCUUCUCAUAAGAUAUAGUCGGACCUCUCCUUAAUGGGAGCUAGCGGAUGAAGUGAUGCAACACUGGAGCCGCUGGGAACUAAUUUGUAUGCGAAAGUAUAUUGAUUAGUUUUGGAGUACUCGUGGUCG
In short: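 DiMSum derived fitness as the error-weighted combination of fold changes across replicates, kanamycin versus no kanamycin, normalised to wild type. E. coli BL21(DE3) held the library, which randomised all eight P1ex-region intron nucleotides within the knt kanamycin-resistance gene on pET-22b(+). Six replicate transformations grew overnight at 37°C or 30°C on LB agar with or without 25 μg/mL kanamycin, also containing 100 μg/mL carbenicillin, 50 μM IPTG and 0.2% rhamnose, and pooled colonies were amplicon-sequenced on an Illumina HiSeq 2500.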

Sequence	self-splicing fitness (ln) (30 °C)	self-splicing fitness (ln) (37 °C)
GUCCAGCAAUAUUACGUUUU	-1.19 ± 0.052	-0.221 ± 0.069
GUCGAGCAAUAUUACGAAAU		-1.29 ± 0.49
GUCGAGCAAUAUUACGAAGA	-3.82 ± 0.43	-1.74 ± 0.31
GUCGAGCAAUAUUACGACGG		-1.72 ± 0.43
GUCGAGCAAUAUUACGAGAC		0.237 ± 0.43
GUCGAGCAAUAUUACGAUCC	-1.82 ± 0.17	-0.489 ± 0.22
GUCGAGCAAUAUUACGAUGC	-1.17 ± 0.18	-1.09 ± 0.18
GUCGAGCAAUAUUACGCCUA		-1.1 ± 0.41
GUCGAGCAAUAUUACGCGAA	-1.39 ± 0.17	0.0361 ± 0.17
GUCGAGCAAUAUUACGCGAG	-0.678 ± 0.096	-0.901 ± 0.12
GUCGAGCAAUAUUACGCUCA	-0.929 ± 0.21	-0.388 ± 0.22
GUCGAGCAAUAUUACGCUUU	-1.81 ± 0.18	-1.92 ± 0.2
GUCGAGCAAUAUUACGGAGU	-3.59 ± 0.19	-0.791 ± 0.094
GUCGAGCAAUAUUACGGAUU	-2.03 ± 0.26	-0.691 ± 0.21
GUCGAGCAAUAUUACGGCAC	-1.29 ± 0.18	-0.213 ± 0.2
GUCGAGCAAUAUUACGGCUU		-0.65 ± 0.49
GUCGAGCAAUAUUACGGUUU	-1.86 ± 0.11	-1.44 ± 0.13
GUCGAGCAAUAUUACGUAGA	-2.65 ± 0.17	-1.88 ± 0.24
GUCGAGCAAUAUUACGUAGC	-1.18 ± 0.16	-0.606 ± 0.22
GUCGAGCAAUAUUACGUAUA	-3.54 ± 0.25	-1.63 ± 0.18
GUCGAGCAAUAUUACGUCAA	-2.62 ± 0.29	-2.32 ± 0.22
GUCGAGCAAUAUUACGUCAG	-3.08 ± 0.16	-2.98 ± 0.19
GUCGAGCAAUAUUACGUCUA	-1.76 ± 0.46	-0.965 ± 0.33
GUCGAGCAAUAUUACGUGCG	-2.9 ± 0.17	-2 ± 0.17
GUCGAGCAAUAUUACGUUCG	-3.55 ± 0.3	-1.86 ± 0.25

Sequence	self-splicing fitness (ln) (30 °C)	self-splicing fitness (ln) (37 °C)
GUCUAGCAAUAUUACGAAUG	-2.56 ± 0.21	-1.43 ± 0.19
GUCUAGCAAUAUUACGACAG	-2.33 ± 0.18	-1.71 ± 0.3
GUCUAGCAAUAUUACGAUAA	-1.09 ± 0.22	0.55 ± 0.23
GUCUAGCAAUAUUACGAUGG	-3.48 ± 0.17	-0.823 ± 0.17
GUCUAGCAAUAUUACGCACU	-0.628 ± 0.047	0.389 ± 0.063
GUCUAGCAAUAUUACGCAGC	-2.29 ± 0.14	-0.0809 ± 0.12
GUCUAGCAAUAUUACGCCAG	-2.46 ± 0.4	
GUCUAGCAAUAUUACGCCUC	-0.0816 ± 0.058	-0.181 ± 0.068
GUCUAGCAAUAUUACGCGCU	-1.29 ± 0.19	-0.353 ± 0.15
GUCUAGCAAUAUUACGCGUU	-0.17 ± 0.063	-0.000183 ± 0.069
GUCUAGCAAUAUUACGGAAC	-1.15 ± 0.26	1.15 ± 0.16
GUCUAGCAAUAUUACGGAGC	-1.04 ± 0.15	-1.02 ± 0.18
GUCUAGCAAUAUUACGGCCU	-2.09 ± 0.19	-1.19 ± 0.16
GUCUAGCAAUAUUACGGUAG		-1.54 ± 0.26
GUCUAGCAAUAUUACGGUUC	-0.596 ± 0.089	0.433 ± 0.096
GUCUAGCAAUAUUACGGUUG	-2.54 ± 0.092	-1.53 ± 0.1
GUCUAGCAAUAUUACGUAAU	-0.317 ± 0.1	0.597 ± 0.12
GUCUAGCAAUAUUACGUAUA	-1.41 ± 0.13	-0.887 ± 0.12
GUCUAGCAAUAUUACGUCAC	-2.9 ± 0.24	-3.04 ± 0.43
GUCUAGCAAUAUUACGUCUC	0.162 ± 0.096	-0.048 ± 0.096
GUCUAGCAAUAUUACGUGCA	-1.38 ± 0.096	-0.535 ± 0.1
GUCUAGCAAUAUUACGUGUG	-0.5 ± 0.063	-0.649 ± 0.079
GUCUAGCAAUAUUACGUUGA	-1.64 ± 0.2	-1.12 ± 0.23
GUCUAGCAAUAUUACGUUGU	-0.779 ± 0.055	-0.582 ± 0.065
GUGAAGCAAUAUUACGAAAU	-0.716 ± 0.11	-0.0167 ± 0.12

Sequence	self-splicing fitness (ln) (30 °C)	self-splicing fitness (ln) (37 °C)
GUGAAGCAAUAUUACGAAUA	-1.91 ± 0.1	-0.485 ± 0.23
GUGAAGCAAUAUUACGAAUU	-0.957 ± 0.18	-0.439 ± 0.21
GUGAAGCAAUAUUACGAGGA		-0.805 ± 0.32
GUGAAGCAAUAUUACGAUGG	-2.31 ± 0.11	0.388 ± 0.13
GUGAAGCAAUAUUACGCCAU	-2.07 ± 0.13	-1.14 ± 0.15
GUGAAGCAAUAUUACGCGGA	-1.24 ± 0.09	-1.13 ± 0.14
GUGAAGCAAUAUUACGCGGU	-3.01 ± 0.28	-0.0814 ± 0.17
GUGAAGCAAUAUUACGGAAC	0.76 ± 0.34	
GUGAAGCAAUAUUACGGCCU	0.395 ± 0.068	0.277 ± 0.085
GUGAAGCAAUAUUACGGGAG	-2.09 ± 0.1	-0.567 ± 0.094
GUGAAGCAAUAUUACGGGGC	-2.91 ± 0.23	-3.35 ± 0.35
GUGAAGCAAUAUUACGGGUA	-0.994 ± 0.068	-1.23 ± 0.1
GUGAAGCAAUAUUACGGGUG	-1.39 ± 0.075	-0.589 ± 0.11
GUGAAGCAAUAUUACGGUCC	-0.351 ± 0.15	-0.0265 ± 0.18
GUGAAGCAAUAUUACGUCCC	-1.28 ± 0.35	-0.367 ± 0.2
GUGAAGCAAUAUUACGUUAA	-2.09 ± 0.12	-1.74 ± 0.14
GUGCAGCAAUAUUACGAACC	-1.94 ± 0.3	0.395 ± 0.48
GUGCAGCAAUAUUACGAGAA		-2.25 ± 0.3
GUGCAGCAAUAUUACGAGGG	-2.79 ± 0.21	-1.87 ± 0.27
GUGCAGCAAUAUUACGAUGU	-0.56 ± 0.067	-0.37 ± 0.073
GUGCAGCAAUAUUACGAUUC	0.476 ± 0.074	-0.403 ± 0.073
GUGCAGCAAUAUUACGCACA	-3.26 ± 0.18	-1.67 ± 0.12
GUGCAGCAAUAUUACGCAUU		-2.38 ± 0.2
GUGCAGCAAUAUUACGCCUA	-1.29 ± 0.24	0.608 ± 0.25
GUGCAGCAAUAUUACGGAUG	-2.72 ± 0.29	-1.74 ± 0.25

Sequence	self-splicing fitness (ln) (30 °C)	self-splicing fitness (ln) (37 °C)
GUGCAGCAAUAUUACGGAUU	-1.66 ± 0.12	-0.37 ± 0.11
GUGCAGCAAUAUUACGGCAC	-0.83 ± 0.2	-1.46 ± 0.24
GUGCAGCAAUAUUACGGCAU	-2.93 ± 0.2	-1.64 ± 0.18
GUGCAGCAAUAUUACGGCCA	-0.211 ± 0.11	-0.818 ± 0.14
GUGCAGCAAUAUUACGGCGC	-2.72 ± 0.17	-2.41 ± 0.32
GUGCAGCAAUAUUACGGCUG	-4.5 ± 0.34	-2.36 ± 0.28
GUGCAGCAAUAUUACGGGAG	-2.01 ± 0.12	-1.44 ± 0.13
GUGCAGCAAUAUUACGGGGC	-1.75 ± 0.15	-2.63 ± 0.27
GUGCAGCAAUAUUACGGGUU	-3.37 ± 0.13	-0.752 ± 0.095
GUGCAGCAAUAUUACGGUCG	-1.29 ± 0.053	-0.792 ± 0.075
GUGCAGCAAUAUUACGUAUG	-1.86 ± 0.13	-1.1 ± 0.13
GUGCAGCAAUAUUACGUCAG	-3.02 ± 0.13	-1.83 ± 0.11
GUGCAGCAAUAUUACGUCCC	-0.912 ± 0.35	-0.124 ± 0.26
GUGCAGCAAUAUUACGUCGC	-1.5 ± 0.28	-0.148 ± 0.22
GUGCAGCAAUAUUACGUGAU	-1.98 ± 0.078	-0.862 ± 0.086
GUGCAGCAAUAUUACGUUUG	-1.76 ± 0.17	-2.63 ± 0.27
GUGGAGCAAUAUUACGAAAA	-2.27 ± 0.43	
GUGGAGCAAUAUUACGAUGA	-1.37 ± 0.19	-1.39 ± 0.37
GUGGAGCAAUAUUACGCCGG	-2.57 ± 0.46	
GUGGAGCAAUAUUACGCGAC	-2.22 ± 0.48	
GUGGAGCAAUAUUACGCGUG	-2.88 ± 0.37	-1.77 ± 0.3
GUGGAGCAAUAUUACGCUUA	-1.86 ± 0.14	-1.04 ± 0.22
GUGGAGCAAUAUUACGCUUC	-3.26 ± 0.2	-3.69 ± 0.42
GUGGAGCAAUAUUACGGGGG	-3.36 ± 0.44	
GUGGAGCAAUAUUACGGUAA	-2.05 ± 0.11	-2.95 ± 0.19
